Data reported in patent US20160145657A1, “Methods and Materials for Producing 7-Carbon Chemicals via a C9 Route” (INVISTA North America S.á.r.l., priority 2014, published 2016).

Experiments:
[1] = ω-transaminase activity, reverse direction (7-aminoheptanoate to pimelate semialdehyde), L-alanine formation by RP-HPLC; format: biochemical; conditions: cell free extract, 10 mM 7-aminoheptanoate, 10 mM pyruvate, pH 7.5, 25° C., 4 h; FIG. 13
Method: (§1) A nucleotide sequence encoding an N-terminal His-tag was added to the nucleic acid sequences from Chromobacterium violaceum, Pseudomonas syringae, Rhodobacter sphaeroides, and Vibrio fluvialis encoding the ω-transaminases of SEQ ID NOs: 7, 9, 10 and 12, respectively (see FIG. 6) such that N-terminal HIS tagged ω-transaminases could be produced. Each of the resulting modified genes was cloned into a pET21a expression vector under control of the T7 promoter and each expression vector was transformed into a BL21[DE3] E. coli host. The resulting recombinant E. coli strains were cultivated at 37° C. in a 250 mL shake flask culture containing 50 mL LB media and antibiotic selection pressure, with shaking at 230 rpm. Each culture was induced overnight at 16° C. using 1 mM IPTG.
(§2) The pellet from each induced shake flask culture was harvested via centrifugation. Each pellet was resuspended and lysed via sonication. The cell debris was separated from the supernatant via centrifugation and the cell free extract was used immediately in enzyme activity assays.
Enzyme activity assays in the reverse direction (i.e., 7-aminoheptanoate to pimelate semialdehyde) were performed in a buffer composed of a final concentration of 50 mM HEPES buffer (pH=7.5), 10 mM 7-aminoheptanoate, 10 mM pyruvate and 100 μM pyridoxyl 5′ phosphate. Each enzyme activity assay reaction was initiated by adding cell free extract of the ω-transaminase gene product or the empty vector control to the assay buffer containing the 7-aminoheptanoate and incubated at 25° C. for 4 h, with shaking at 250 rpm. The formation of L-alanine from pyruvate was quantified via RP-HPLC.

[2] = ω-transaminase activity, forward direction (pimelate semialdehyde to 7-aminoheptanoate), pyruvate formation by RP-HPLC; format: biochemical; conditions: conclusion from reverse and forward assays of Example 1
Method: as §1, §2
Enzyme activity in the forward direction (i.e., pimelate semialdehyde to 7-aminoheptanoate) was confirmed for the transaminases of SEQ ID NO 9, SEQ ID NO 10 and SEQ ID NO 12. Enzyme activity assays were performed in a buffer composed of a final concentration of 50 mM HEPES buffer (pH=7.5), 10 mM pimelate semialdehyde, 10 mM L-alanine and 100 μM pyridoxyl 5′ phosphate. Each enzyme activity assay reaction was initiated by adding a cell free extract of the ω-transaminase gene product or the empty vector control to the assay buffer containing the pimelate semialdehyde and incubated at 25° C. for 4 h, with shaking at 250 rpm. The formation of pyruvate was quantified via RP-HPLC.

[3] = ω-transaminase activity, 7-aminoheptanol to 7-oxoheptanol, L-alanine formation by RP-HPLC; format: biochemical
Method: A nucleotide sequence encoding an N-terminal His-tag was added to the Chromobacterium violaceum, Pseudomonas syringae and Rhodobacter sphaeroides nucleic acids encoding the ω-transaminases of SEQ ID NOs: 7, 9 and 10, respectively (see FIG. 6) such that N-terminal HIS tagged ω-transaminases could be produced. The modified genes were cloned into a pET21a expression vector under the T7 promoter. Each expression vector was transformed into a BL21[DE3] E. coli host. Each resulting recombinant E. coli strain were cultivated at 37° C. in a 250 mL shake flask culture containing 50 mL LB media and antibiotic selection pressure, with shaking at 230 rpm. Each culture was induced overnight at 16° C. using 1 mM IPTG.
as §2
Enzyme activity assays in the reverse direction (i.e., 7-aminoheptanol to 7-oxoheptanol) were performed in a buffer composed of a final concentration of 50 mM HEPES buffer (pH=7.5), 10 mM 7-aminoheptanol, 10 mM pyruvate, and 100 μM pyridoxyl 5′ phosphate. Each enzyme activity assay reaction was initiated by adding cell free extract of the ω-transaminase gene product or the empty vector control to the assay buffer containing the 7-aminoheptanol and then incubated at 25° C. for 4 h, with shaking at 250 rpm. The formation of L-alanine was quantified via RP-HPLC.

[4] = literature reports; cited from earlier work
[5] = carboxylate reductase activity, N7-acetyl-7-aminoheptanoate to N7-acetyl-7-aminoheptanal, NADPH consumption at 340 nm; format: biochemical; conditions: purified enzyme enhanced by sfp gene product, 2 mM N7-acetyl-7-aminoheptanoate, pH 7.5, room temperature, 20 min; FIG. 10
Method: The activity of each of the N-terminal His-tagged carboxylate reductases of SEQ ID NOs: 3, 5, and 6 (see Examples 2 and 3, and FIG. 6) for converting N7-acetyl-7-aminoheptanoate to N7-acetyl-7-aminoheptanal was assayed in triplicate in a buffer composed of a final concentration of 50 mM HEPES buffer (pH=7.5), 2 mM N7-acetyl-7-aminoheptanoate, 10 mM MgCl2, 1 mM ATP, and 1 mM NADPH. The assays were initiated by adding purified carboxylate reductase and phosphopantetheine transferase or the empty vector control to the assay buffer containing the N7-acetyl-7-aminoheptanoate then incubated at room temperature for 20 min. The consumption of NADPH was monitored by absorbance at 340 nm.

[6] = carboxylate reductase activity, pimelate semialdehyde to heptanedial, NADPH consumption at 340 nm; format: biochemical; conditions: purified enzyme enhanced by sfp gene product, 2 mM pimelate semialdehyde, pH 7.5, room temperature, 20 min; FIG. 11
Method: The N-terminal His-tagged carboxylate reductase of SEQ ID NO: 6 (see Example 3 and FIG. 6) was assayed using pimelate semialdehyde as substrate. The enzyme activity assay was performed in triplicate in a buffer composed of a final concentration of 50 mM HEPES buffer (pH=7.5), 2 mM pimelate semialdehyde, 10 mM MgCl2, 1 mM ATP and 1 mM NADPH. The enzyme activity assay reaction was initiated by adding purified carboxylate reductase and phosphopantetheine transferase or the empty vector control to the assay buffer containing the pimelate semialdehyde and then incubated at room temperature for 20 min. The consumption of NADPH was monitored by absorbance at 340 nm.

[7] = carboxylate reductase activity, pimelate to pimelate semialdehyde, NADPH consumption at 340 nm; format: biochemical; conditions: purified enzyme enhanced by sfp gene product, 2 mM pimelate, pH 7.5, room temperature, 20 min; FIG. 8
Method: A nucleotide sequence encoding a HIS-tag was added to the nucleic acid sequences from Segniliparus rugosus and Segniliparus rotundus that encode the carboxylate reductases of SEQ ID NOs: 4 (EFV11917.1) and 6 (ADG98140.1), respectively (see FIG. 6), such that N-terminal HIS tagged carboxylate reductases could be produced. Each of the modified genes was cloned into a pET Duet expression vector along with a sfp gene encoding a HIS-tagged phosphopantetheine transferase from Bacillus subtilis, both under the T7 promoter. Each expression vector was transformed into a BL21[DE3] E. coli host and the resulting recombinant E. coli strains were cultivated at 37° C. in a 250 mL shake flask culture containing 50 mL LB media and antibiotic selection pressure, with shaking at 230 rpm. Each culture was induced overnight at 37° C. using an auto-induction media.
The pellet from each induced shake flask culture was harvested via centrifugation. Each pellet was resuspended and lysed via sonication, and the cell debris was separated from the supernatant via centrifugation. […]
Enzyme activity assays (i.e., from pimelate to pimelate semialdehyde) were performed in triplicate in a buffer composed of a final concentration of 50 mM HEPES buffer (pH=7.5), 2 mM pimelate, 10 mM MgCl2, 1 mM ATP and 1 mM NADPH. […] The consumption of NADPH was monitored by absorbance at 340 nm. […]

| Molecule | acceptance of 7-aminoheptanoate as substrate (conversion of pyruvate to L-alanine) against the empty vector control [1] | reversibility of ω-transaminase activity: pimelate semialdehyde accepted, 7-aminoheptanoate synthesized [2] | acceptance of 7-aminoheptanol as substrate (conversion of pyruvate to L-alanine) against the empty vector control ([3]; cell free extract, 10 mM 7-aminoheptanol, 10 mM pyruvate, pH 7.5, 25° C., 4 h, FIG. 17) | acceptance of 7-oxoheptanol as substrate forming 7-aminoheptanol, concluded from reversibility ([3]; inferred from reverse direction assay and Example 1) | activity with 7-aminoheptanoate / 7-aminoheptanoic acid (to pimelate semialdehyde) [4] | acceptance of N7-acetyl-7-aminoheptanoate as substrate (NADPH consumption) against the empty vector control [5] | acceptance of pimelate semialdehyde as substrate (NADPH consumption) against the empty vector control [6] | acceptance of pimelate as substrate (NADPH consumption) against the empty vector control [7] |
| --- | --- | --- | --- | --- | --- | --- | --- | --- |
| SEQ ID NO 7: Chromobacterium violaceum ω-transaminase, Genbank Accession No. AAQ59697.1 (protein) MQKQRTTSQWRELDAAHHLHPFTDTASLNQAGARVMTRGEGVYLWDSEGNKIIDGMAGLWCVNVGYGRKDFAEAARRQMEELPFYNTFFKTTHPAVVELSSLLAEVTPAGFDRVFYTNSGSESVDTMIRMVRRYWDVQGKPEKKTLIGRWNGYHGSTIGGASLGGMKYMHEQGDLPIPGMAHIEQPWWYKHGKDMTPDEFGVVAARWLEEKILEIGADKVAAFVGEPIQGAGGVIVPPATYWPEIERICRKYDVLLVADEVICGFGRTGEWFGHQHFGFQPDLFTAAKGLSSGYLPIGAVFVGKRVAEGLIAGGDFNHGFTYSGHPVCAAVAHANVAALRDEGIVQRVKDDIGPYMQKRWRETFSRFEHVDDVRGVGMVQAFTLVKNKAKRELFPDFGEIGTLCRDIFFRNNLIMRACGDHIVSAPPLVMTRAEVDEMLAVAERCLEEFEQTLKARGLA | accepted 7-aminoheptanote as substrate | accepted pimelate semialdehyde as substrate and synthesized 7-aminoheptanoate as a reaction product | accepted 7-aminoheptanol as substrate | accept 7-oxoheptanol as substrate and form 7-aminoheptanol | demonstrated analogous activity accepting 7-aminoheptanoic acid as amino donor |  |  |  |
| SEQ ID NO: 6: Segniliparus rotundus carboxylate reductase, Genbank Accession No. ADG98140.1 (protein) MTQSHTQGPQASAAHSRLARRAAELLATDPQAAATLPDPEVVRQATRPGLRLAERVDAILSGYADRPALGQRSFQTVKDPITGRSSVELLPTFDTITYRELRERATAIASDLAHHPQAPAKPGDFLASIGFISVDYVAIDIAGVFAGLTAVPLQTGATLATLTAITAETAPTLFAASIEHLPTAVDAVLATPSVRRLLVFDYRAGSDEDREAVEAAKRKIADAGSSVLVDVLDEVIARGKSAPKAPLPPATDAGDDSLSLLIYTSGSTGTPKGAMYPERNVAHFWGGVWAAAFDEDAAPPVPAINITFLPLSHVASRLSLMPTLARGGLMHFVAKSDLSTLFEDLKLARPTNLFLVPRVVEMLYQHYQSELDRRGVQDGTREAEAVKDDLRTGLLGGRILTAGFGSAPLSAELAGFIESLLQIHLVDGYGSTEAGPVWRDGYLVKPPVTDYKLIDVPELGYFSTDSPHPRGELAIKTQTILPGYYKRPETTAEVFDEDGFYLTGDVVAQIGPEQFAYVDRRKNVLKLSQGEFVTLAKLEAAYSSSPLVRQLFVYGSSERSYLLAVIVPTPDALKKFGVGEAAKAALGESLQKIARDEGLQSYEVPRDFIIETDPFTVENGLLSDARKSLRPKLKEHYGERLEAMYKELADGQANELRDIRRGVQQRPTLETVRRAAAAMLGASAAEIKPDAHFTDLGGDSLSALTFSNFLHDLFEVDVPVGVIVSAANTLGSVAEHIDAQLAGGRARPTFATVHGKGSTTIKASDLTLDKFIDEQTLEAAKHLPKPADPPRTVLLTGANGWLGRFLALEWLERLAPAGGKLITIVRGKDAAQAKARLDAAYESGDPKLAGHYQDLAATTLEVLAGDFSEPRLGLDEATWNRLADEVDFISHPGALVNHVLPYNQLFGPNVAGVAEIIKLAITTRIKPVTYLSTVAVAAGVEPSALDEDGDIRTVSAERSVDEGYANGYGNSKWGGEVLLREAHDRTGLPVRVFRSDMILAHQKYTGQVNATDQFTRLVQSLLATGLAPKSFYELDAQGNRQRAHYDGIPVDFTAESITTLGGDGLEGYRSYNVFNPHRDGVGLDEFVDWLIEAGHPITRIDDYDQWLSRFETSLRGLPESKRQASVLPLLHAFARPGPAVDGSPFRNTVFRTDVQKAKIGAEHDIPHLGKALVLKYADDIKQLGLL |  |  |  |  |  | accepted N7-acetyl-7-aminoheptanoate as substrate | accepted pimelate semialdehyde as substrate | accepted pimelate as substrate |
